In the supplement of paper PMC10567573:
± gives the standard deviation.

Assay: protein stability index of a GFP-peptide fusion (GPS, HEK-293T) (PSI 1-6); higher = more stable
[1] = treatment: DMSO, c terminus: a fixed tail appended
[2] = treatment: MLN4924 1 uM, 8 h, c terminus: a fixed tail appended
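Also: 24-mer peptide tiles fused after GFP, lentivirally expressed, FACS-sorted into six equal bins by GFP/DsRed ratio, decoded by Illumina sequencing, PSI is the read-weighted mean bin number.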

Sequence | protein stability index [1] | protein stability index [2] | protein stability index (treatment: DMSO, c terminus: native) | protein stability index (treatment: MLN4924 1 uM, 8 h, c terminus: native)
GDIASGYHYGVASCEACKAFFKRT [ESRRG] | 2.76 ± 0.38 | 3.02 ± 0.41 | – | –
MAAGGRMEDGSLDITQSIEDDPLL [TMEM192] | 4.7 ± 0.29 | 4.87 ± 0.16 | – | –
ALRQSVEADINGLRRVLDELTLSK [KRT13] | 3.08 ± 0.2 | 3.09 ± 0.26 | – | –
TREAVTEILGIEPDREKGFHLDVE [TSN] | 4.62 ± 0.063 | 4.64 ± 0.12 | – | –
PWVKELQDSKEMKQLLDSKIGFEI [ZNF449] | 2.9 ± 0.49 | 3.01 ± 0.65 | – | –
CRNGSSIQIAFEEVPQLPPRASIS [C2CD2L] | 3.03 ± 0.34 | 2.98 ± 0.16 | – | –
ICCWSFYGQGRKIAEVCCTSIVYA [KCTD10] | 2.98 ± 0.44 | 3.44 ± 0.54 | – | –
RVAIAHYQDDPDLRFLLDQVQLGL [TSPAN10] | 2.28 ± 0.25 | 2.36 ± 0.25 | – | –
GAPSVGQPGAGFGMPPAGTGMPMM [SNAP91] | 3.61 ± 0.23 | 3.76 ± 0.23 | – | –
LGKLPPQYALELLTVYAWERGSMK [OAS1] | 2.31 ± 0.61 | 2.36 ± 0.41 | – | –
FVQDVLFVLQAIGIPGWGFSGWIS [SCAMP3] | 3.33 ± 0.35 | 2.73 ± 0.33 | – | –
VHVIGVEEPSVGASMLFDIREST [ZNF8] | – | – | 2.3 ± 0.27 | 2.38 ± 0.17
PDRGSPEYRQRRERNNIAVRKSRD [CEBPD] | 5.03 ± 0.37 | 5.35 ± 0.12 | – | –
FISRTSIPNAASEEGDEDDWASNK [WEE1] | 4.3 ± 0.32 | 4.73 ± 0.31 | – | –
TFPHSISAKNTSHPGSGTKVQFNL [SASS6] | 2.89 ± 0.33 | 3 ± 0.46 | – | –
MEGLAGYVYKAASEGKVLTLAALL [FEM1B] | 2.22 ± 0.31 | 2.09 ± 0.44 | – | –
DLLTFVQNLCKGLSQPTTNLVAGC [NEUROD6] | 3 ± 1 | 2.47 ± 0.33 | – | –
EGSVACLWWDPIQRLLFSGASDNS [WDFY1] | 2.36 ± 0.32 | 2.43 ± 0.1 | – | –
ACGGTRDQLFMQEKARQLLGRLKP [MYBL2] | 3.39 ± 0.54 | 3.29 ± 0.38 | – | –
IEQDAVVPSEWLSSVYKQQWFAML [GMCL1] | 2.26 ± 0.098 | 2.78 ± 0.3 | – | –
LRIPEGPIDQGPAIGRVRVLEEQL [FUT8] | 3.69 ± 0.37 | 3.85 ± 0.19 | – | –
MRGPEPGPQPTMEGDVLDTLEALG [FAM98B] | 5.19 ± 0.34 | 5.087 ± 0.039 | – | –
DPIIDSWEVVTSMGTQRCDAGVCV [KLHL12] | 3 ± 0.21 | 2.95 ± 0.39 | – | –

Sequence | protein stability index [1] | protein stability index [2] | protein stability index (treatment: DMSO, c terminus: native) | protein stability index (treatment: MLN4924 1 uM, 8 h, c terminus: native)
AAANKLFHYIPGTDILDLENQREN [PLEKHN1] | 4.13 ± 0.3 | 3.92 ± 0.43 | – | –
YPSLYYPEMYILKGGYKEFFPQHP [CDC25B] | 1.78 ± 0.2 | 2.12 ± 0.43 | – | –
LANRLCLPHLVALTEQYTVTGLME [RHOBTB2] | 2.57 ± 0.6 | 2.43 ± 0.39 | – | –
VYNAARDGKLQLLQKLLSGRSREE [FEM1A] | 2.77 ± 0.15 | 2.79 ± 0.27 | – | –
STPTTPGSTAITPGTPPSYSSRTP [MAP2] | 4.88 ± 0.1 | 5.06 ± 0.15 | – | –
HLKSSRNSTSVKKKSSRNIFSIVF [P2RY14] | 2.39 ± 0.48 | 2.13 ± 0.55 | – | –
SDPQTVAGAFGYFQQDTKGLVDFR [LPCAT4] | 3.68 ± 0.41 | 3.71 ± 0.29 | – | –
PGSFWGLCQVAQEALASAGASCCG [VENTX] | 2.41 ± 0.4 | 2.54 ± 0.22 | – | –
CKICGRTFFPVALKKHGPICQKTA [ZC2HC1A] | 3.58 ± 0.063 | 3.92 ± 0.38 | – | –
YKVNTPMLQSFINYCLLFLIYTVM [SLC35F2] | 2.35 ± 0.8 | 2.44 ± 0.38 | – | –
AACLYLVCRTEGTPHMLLDLSDLL [BRF1] | 3.31 ± 0.47 | 2.85 ± 0.43 | – | –
SLGYVRSQFLKLKTSVEKANAQIQ [CD207] | 2.63 ± 0.53 | 2.81 ± 0.27 | – | –
GLASWPLARGIHVAGILSLLLGTA [POMT2] | 2.52 ± 0.52 | 2.18 ± 0.49 | – | –
TYSKFQPQSPDFLDITNPKAVLEN [UFD1] | 3.92 ± 0.18 | 4.24 ± 0.076 | – | –
IWLAESVLDILTEQREWVLKSSIL [INTS3] | 2.88 ± 0.82 | 2.6 ± 0.84 | – | –
SSRFSSSRLLGSASPSSSVRLGSF [PRPH] | 2.82 ± 0.24 | 2.83 ± 0.18 | – | –
PHFLRVPCWKITLFVIVPVLGPLV [MOG] | 2.9 ± 0.65 | 2.85 ± 0.3 | – | –
GFENMDFFTLDLEHIADALRAIDF [TRIM63] | 2.11 ± 0.17 | 2.25 ± 0.35 | – | –
SGSSYRDALQRYGTSHGAPPARGP [RBMY1A1] | 4.1 ± 0.22 | 4.14 ± 0.25 | – | –
PMDSTMDDAVAGDFALINKLDIQC [ATE1] | 4.4 ± 0.26 | 4.29 ± 0.24 | – | –
LEKESDTPLQQVSIEEILEEQRVE [LSM1] | 5.26 ± 0.26 | 5.53 ± 0.098 | – | –
NPLIASSFSLVKLVLRRQLKNKCC [C22orf31] | 2.25 ± 0.35 | 2.18 ± 0.32 | – | –
